{"source": "paper PMC8850199", "about": "“Structure, mechanism and lipid-mediated remodeling of the mammalian Na^+/H^+ exchanger NHA2” (Nature Structural & Molecular Biology, 2022)", "molecular_target": "the molecule itself", "assay": "native MS; detergent-purified NHA2ΔN exchanged into C12E9, ~20 μM, Q-Exactive Orbitrap modified for high m/z", "data": [{"protein": "bison NHA2ΔN (SLC9B2 without the first 69 residues), GFP-TwinStrep-His8 tag removed with TEV protease (domain or fragment, Bison bison, Na+/H+ exchanger NHA2 (SLC9B2), Bison bison, without the first 69 residues of the N-terminal tail; numbers count on: the full-length bison NHA2 as printed; residues of it stay on the C-terminus after digestion; also called biNHA2ΔN; source: S. cerevisiae FGY217, purified (DDM/CHS, Ni-NTA, TEV digestion, SEC); for nanodiscs reconstituted as GFP fusion with MSP1E2 and yeast PI, then TEV digestion …) RRRQIHACPPRGLLARVITNVTMVILLWAVVWSVTGSECLPGGNLFGIIMLFYCAIIGGKLFGLIKLPTLPPLPPLLGMLLAGFLIRNVPVISDNIQIKHKWSSALRSIALSVILVRAGLGLDSNALKKLKGVCVRLSLGPCLIEACTSAVLAYFLMGLPWQWGFMLGFVLGAVSPAVVVPSMLLLQEGGYGVEKGIPTLLMAAGSFDDILAITGFNTCLGMAFSTGSTVFNVLKGVLEVIIGVVTGLVLGFFIQYFPSSDQDNLVWKRAFLVLGLSVLAVFSSTYFGFPGSGGLCTLVTAFLAGRGWASTKTDVEKVIAVAWDIFQPLLFGLIGAEVLITALRPETIGLCVATLGIAVLIRILVTYLMVCFAGFNIKEKIFISFAWLPKATVQAAIGSVALDTARSHGEKQLEGYGMDVLTVAFLSIIITAPVGSLLIGLLGPRLLQKAEQNKDEEDQGETSIQV", "values": [{"measurement": "stoichiometry N", "value": 2}]}]}
